Legend:
[1] = molecular target: T1, phi29 DNA polymerase G410C/P562C (Bacteriophage phi29, UniProt P03680 1-575, G410C;P562C); assay: EMSA
T1 sequence: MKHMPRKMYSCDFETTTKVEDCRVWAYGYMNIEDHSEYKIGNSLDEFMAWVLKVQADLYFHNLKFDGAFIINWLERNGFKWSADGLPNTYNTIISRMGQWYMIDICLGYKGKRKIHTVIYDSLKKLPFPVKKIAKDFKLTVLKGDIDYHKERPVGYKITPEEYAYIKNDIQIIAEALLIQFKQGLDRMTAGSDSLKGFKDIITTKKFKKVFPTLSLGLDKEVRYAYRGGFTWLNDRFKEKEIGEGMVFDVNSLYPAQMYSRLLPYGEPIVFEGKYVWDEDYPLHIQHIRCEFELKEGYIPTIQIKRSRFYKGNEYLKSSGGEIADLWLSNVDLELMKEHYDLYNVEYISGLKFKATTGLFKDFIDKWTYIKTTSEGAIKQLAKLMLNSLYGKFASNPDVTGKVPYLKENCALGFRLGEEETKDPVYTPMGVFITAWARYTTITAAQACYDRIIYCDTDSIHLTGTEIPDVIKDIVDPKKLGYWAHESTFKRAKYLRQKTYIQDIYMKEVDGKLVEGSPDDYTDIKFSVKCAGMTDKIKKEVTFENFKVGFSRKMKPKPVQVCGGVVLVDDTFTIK

[2] = molecular target: T2, phi29 DNA polymerase wild-type (Bacteriophage phi29, UniProt P03680 1-575); assay: EMSA
T2 sequence: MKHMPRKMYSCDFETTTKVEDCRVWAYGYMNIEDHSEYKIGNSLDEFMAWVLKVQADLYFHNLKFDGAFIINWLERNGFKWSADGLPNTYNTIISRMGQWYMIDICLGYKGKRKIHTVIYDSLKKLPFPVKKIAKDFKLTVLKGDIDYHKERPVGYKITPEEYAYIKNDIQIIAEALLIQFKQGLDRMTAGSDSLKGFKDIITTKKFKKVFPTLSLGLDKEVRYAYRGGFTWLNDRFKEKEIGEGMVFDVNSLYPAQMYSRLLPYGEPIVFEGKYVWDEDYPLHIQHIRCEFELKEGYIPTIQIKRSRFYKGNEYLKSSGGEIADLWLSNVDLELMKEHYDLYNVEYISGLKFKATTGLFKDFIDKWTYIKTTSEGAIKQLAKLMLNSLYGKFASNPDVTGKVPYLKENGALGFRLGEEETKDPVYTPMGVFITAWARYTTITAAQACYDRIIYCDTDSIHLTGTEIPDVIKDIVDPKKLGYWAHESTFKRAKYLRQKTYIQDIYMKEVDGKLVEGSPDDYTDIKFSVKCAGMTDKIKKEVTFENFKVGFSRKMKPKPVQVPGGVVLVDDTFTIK

B1: sp1/sp1c+6 (15/21mer primer/template) (dsDNA)
DNA 1: GATCACAGTGAGTAC
DNA 2: TCTATTGTACTCACTGTGATC
For B1, the binding signal [1] was 3 % of wild-type (unit presumed) and the binding result [2] was “binds”.
